Measured values: the DeepSol protein solubility set

Experiment: soluble on expression in E. coli; label from the status in PepcDB or PDB records

Soluble on expression in E. coli, soluble:
MKFNCPLIVVNDINISRKFYEEVLCQKIKYDFGENVVYEGDFSLQLKSHFANMIDIDEKSIKFQSNGFELYFEEDNIEAFLNKLKQNKGINYIHSLLEHPWGQRVIRFYDPDMHIIEVGESMEGVIKRFFNEGMSIDEITKRTQHPLEFVKRVLHYKLTLEHHHHHH
MGVSGYGHDDLGRETLDKVFAEVMGAEAAAVRVQFVSGTHAIACALFGVLRPGDEMLAVVGSPYDTLEEVIGLRGQGQGSLIEFGIKYRQLELTSQGSIDWQTLSTSITDHTRLVLIQRSCGYSWRPSLSIADIEKVVNLVKQQNPHTVCFVDNCYGEFIETQEPTHVGADLMAGSLIKNPGGTIVTAGGYVAGRADLVEAAACRLTAPGIGSYGGATFLEHHHHHH
MSLKILVLGIGNILFGDEGIGVHLSNLLKVNYRFEGPHQVDVIDGGTLAQLLIPLITSYDYVIVIDCVDAGGGKIGEVYFFDFDNVPNVITWQGSAHEVEMLQTLRMTEVNGDLPPVKIVGVIPSIIGSETAFDLSKEVAEASVTMEKIVLNHLQELGVEITRIDSKTIDEIAPLSYKGEGHHHHHH
GMVEPMTPRFKYTKASQENIQQLGNILEQCFVMSFGDSEIYVKGIGLENFRVIYREQKVAGGLAILPMGQWWGGQRVPMAGIAAVGIAPEYRGDGAAIALIQHTLQEISEQDIPISVLYPATQRLYRKAGYEQAGSSCVWEIPTDSIQIQHASLPLEPVVLKNNPIFHELYQQQAQLTHGYLDRHPAIWQGLNRTLDTETLYSYLIGDKDKPQGYIIFTQERTRDGSILRIRDWVTLSNPAVQSFWTFIANHRSQIDKVTWKSSVIDALTLLLPEQSATIRSQDRWMLRIVNVCKALEARGYPLGVEAELHLEVQDDLLATNQGKFILSVANGKSEVTKGGKGELQLDIKGLASLYTSLFTPRQLQLTGKLQATETALLKATQIFAGESPWMIDFF
MVIRVYIASSSGSTAIKKKQQDVLGFLEANKIGFEEKDIAANEENRKWMRENVPENSRPATGYPLPPQIFNESQYRGDYDAFFEARENNAVYAFLGLTAPPGSKEAEV

Soluble on expression in E. coli, not soluble:
MGSDKIHHHHHHAISVGNLTFSLPAEADFASKRVVNNNKSARLYRIAVSAIDRPGGSEVRSRPVDGELLFAPRQLVLQAGESEYFKFYYHGPRDNRERYYRVSFREIPTRNLTRRSPTGGEVSMEPVVVMDTILVVRPREVQFKWSFDKVAGTVSNTGNTWFKLLIKPGCDSTEEEGDAWYLRPGDVVRQPALRQPGNHYLVYNDKFIKISDTCPLKPRPAE
MGSDKIHHHHHHMNSSHGTSSSGASAGAHGALPLEAQKLNGWGRTAPTTAEVLTTPDLDIIVDAVRQVAEQNDSKPDYLKRGVIARGMGRSYGDPAQNAGGLVIDMQPLNKIHSIDPDSAIVDVDGGVTLDQLMKAALPYGLWVPVLPGTRQVTIGGAIGPDIHGKNHHSAGSFGDHVVSMELLVADGRILHLEPEGTAEDPQGDLFWATVGGMGLTGIIVRARIRMTKTETAYFIADTDRTNNLEETVAFHSDGSEHNYTYSSAWFDVISPEPKLGRSTISRGSLATLAQLEELAPKLAKDPLKFNAPQLMKVPDIFPSWTLNKLTLSAVGVAYYAMGAPAKNQVKNLTQFYQPLDLIGEWNRGYGSKGFLQYQFVVPTEAVEPFKDIIRDMQKSGHYSALNVFKLFGPGNRAPLSYPMPGWNVCVDFPIRPGLGAFLDDLDKRVMEFGGRLYLAKESRTSAENFHAMYPGMEGWLKTRNEIDPTGVFASDMSRRLELS
MGSDKIHHHHHHMTEEKESLAGRQWLVDKVDNSIKEGQTAIPAIENGICQRCGSSCWVRLPSGFLYCRACVGLGRLDEGKLLVRQAAGSHYPARAGMTWTGQLQERQEGVSRFLLEKFAAKEDCLVEAVTGAGKTEMIFPLLAEAFSCGCRVAIATPRIDVVNELYPRLVAAFGEVEIGKYHGREEKEAANEQLVICTTHQLLKYYQAFDLLIIDEIDSFPYAGNPQLHFAAGNAVKKTGSQVFLTATPPEDLLKAARQGKLAIVRLNRRFHCYPLPVPRLDLYVKPFLTKGRLHPKLARRIKMAAKSGHPLLVFLPRIAQMPQYFAAVKRLLPDLRLATVYAQDPDRLEKVEKFRKGDLDLLLTTTILEGGVTLSMSG
MSAETATIPEVSNQETKAEKVIADSLEAKKDESAAVEINGSSTHENGDTNIEKKTEEPVVEAKVSEEPATTSETPAAQVTESQKDEKTDDAPAEPAEVAVEAAKEEPVVEEKKEDAPEPVVTEEKKSEEAPAPEEKKSEEVVAAEEKKEPAAVVEEKKEVPETPVVEDKKEEAPASSEEKKDEPVVNTEEKKDAAEAPAADEESEAAEEKVAETTVAPVATPSGRGRGRGRGRPPGPNATPKAAASEKKRAAKPKAAVNPESIAASRPRRSTSNRIDYANSDTSTVLAEVDDEIPGKLFRGRKPPRGKITKYVSDSDGAPSDEDDVDFGKKKKGAPSTRGRGRPPSSNRPTRAAATKRSAKDASDESNEDEIEYDDKSDEDVSPRKKARGAPARAAADDEDDEGEEMDASEEVEA
MSWQLALYNGLWRALTPLVRRYLKKRARKAPAYLEHWDERFGQALSPSATGAIWIHAVSVGETRAAQPLVAAIRREWPDAPLLLTQMTPTGRATAEQLYPDAEVRYLPYDYPQAAADFLRAYRPRCGVLMETEIWPNLIHAAAAQRIPLLLANARLSEKSLNGYRKIAGLISPAIAKLTAVAAQTAEDADRLRQLGARSVSVCGSSKYDIEVPEAQRHLAADFRAMAGGRRALLCASTRDGEEALILDAWLAAGAAVGDTLLVLVPRHPERWDEVEKLAAERGLKSQRRSGGAAIAADTRVWLGDSMGEMFGYLGACDVAFIGGSLLPYGCHNLIEPAQVGVPALFGPSVFNFQQAAADSLAAGAGRQVGDAAALVSTALSLMDDPAAGEAMRQGAVRFRDAHRGASERMLALIREAMSAGSEKLEHHHHHH
MGSDKIHHHHHHMILPDRKQILDRELIRRIADTTISGSGHSDGLSEYASIRKAAFAFVESAVLGDQAYSPIENAELAFIVWILAALDENIITARTIIKARDTVYYYLRLVEHYEDLEEFGSRLGIEISVFGEQIGKDHLYRIGVADFATYASRVTGSKYRLSNQIVREGYVYVDEDVMAKVLREAFVSFMFDTLDQIRYYDAIETIKSVLDDLEKIRESYRKAHNVRMIAGKGDASMFPPCMKEIIKNLESGVNVSHMGRLALASFLHKAGYSEDEIVPYFRNAPDFDENITRYQIKHISGEISGTEYTPPKCETMRSNHLCYMDDDPLCHREWMKHPLTYYEVKRRNRKIR
MGSDKIHHHHHHMTSTPHSPSEMFASIPGIFGFYPEESIVVLTLMHTKESCYQLGPVMRLDLKDLRYLSDIGDTLSAIEPDLVFGLIISGQKPEAIEDLRGLIEFVADCEIVPFDACWYTSAIESGGKYDAIWLNEAMTEAALEYQSWRKGRIPLIANTGITGEMIHAGHLPELSRKDIEKHYAQAEESEQWDEYLITERYAELFDDPSTSFRSAQECIDAFSQAVELMRTEKLITDAALTVAAFLKNKMSRDIIIECCVHNANTVKEALCYVSRHTKGFVRANALALYALCIVDSPWGNHITCVLQAAHNTLPFHHLTALVAEAYYRGLSGSIVDLVVSGSQEAQKHFGEATNVKSAV
MGSDKIHHHHHHMPSWFTNVQLGFDMATSLTIVGAAVTWVIREKKQAEAEKVRGINQQVRSTSLKKVQDVLFEMEDKFSVLINETQTYENMIDNRVRKVNDQLDFSRLNLAIKRDDQFLIKAIDRLQAIREELGQFYELIQVRRYSLIPLLDAIEEGDKYIGVFQQNIDEVGDAYNQVTSGNVSLLKELEAVISMLNKQFGDELVDVSDEVKKELFQKISTDETFMKPIQSIIYDEDYFYWVQRFVPAGREDDYLEKVVRPSKIEDKELCSEVMVHFILALIGKNHELISQVLRTASGSVMKARIECKDILISLSAISHKLVMDNNGETLEKVIAKYESEEYFGRNVTIR
MGSDKIHHHHHHMELQLMQWQVGDLPFFYRCQPQPSNAPYGLPDSLPFCLEFDSALGLIRQSPNTQVEAALERCYQHGSTISGMMDSGGIGQQYARDFLDFIAHHETDLTGKRVLEIGCGTGYLLSLLKQKGADVLGIEPGAQGQGGQQRHGVPIIDGFFPHPKAEGKFDLIVAYAVLEHIGEPQGFLEKIADSLAPDGVAYIAVPDCAPYIENGDISCLLHEHWSYFDASSLQRLLEVSGFAAAVQPAGFGGSIYARAVRVSHKTKPVNDEIDLAGNGFERFRSLALGAGQRLERFLAGPGQAGIYVPGRMINLLASLDSVDLAQVRLFDDNEALTGLYFPGMPNPIEDFSGLVERPPARLLIATKSFHFQIADRIEHASVEVPLLAWSDLFLVAAPK
MGSDKIHHHHHHMLNYHHLRYFWIVAHEGNLTRAARKHNIAQSALSMQISALEEYLGQPLFERAGRRLVLTEAGHIALDFADAIFAKGDELLGTFGRLAEAHQKVLRVGALATLSRNFQVGFLRPLFADPEITVIVRSGTLDELLGSLKLYDLDIVLATGVPNRDHATPWIVHIIDTQPVGLIGQPRSDRYQQPLEVLLQREPLIVPSPESTIRTGFDALVHRLGIRPRIVAEIDDMAMMRLVAREHNGLAVIPPIVVTDELRSGMLVEYAELPELVETFCAITMPRRFPNPLLRLVLPGHTTPE
GPGSMAGWASLGRSFRTPESRSEELVKKAIEGDALRIGSGDTVKHEEAVSPFAAKLFSNITGSQRYVLIAVRHTQPATVDESRKAAIFHHDIRQAGIAMGHDEILAVGHARLEPGEQFGWREPLMLFVQIILIDKTGFHPSTCSLDAMFRLVVEWAGSRIKRMQPPHCISHDGYFLGRSKVR
MSEEVGAKRWYAVHTYSGYENKVKKNLEKRVESMNMTEQIFRVVIPEEEETQVKDGKAKTTVKKTFPGYVLVELIMTDESWYVVRNTPGVTGFVGSAGAGSKPNPLLPEEVRFILKQMGLKEKTIDVELEVGEQVRIKSGPFANQVGEVQEIETDKFKLTVLVDMFGRETPVEVEFDQIEKL
MGSDKIHHHHHHMFKLVSEFEPTGDQPQAIEKLVEGLNRGMRFQTLLGVTGSGKTFTMANVIARVNRPALVISPNKTLAAQLYQEFKTFFPENRVEFFISYYDYYQPEAYIPTKDLYIEKNADINDVIVRMRMSTLKSVRTRRDVVVVASVSCIYATGDPNDFDRMNINLAVGDRIDVLELAERLARIGYQRTEDVSLSGCFRLKGDTVEIYPTYQDEGIRIEFFGDEVDSITLIDRFNRTTLEHLDKIIIYPAVEFITTEEKLKRAVESIREELNERLSELKKQGKILEYERLKQRTLNDIELLETMGYCPGIENYSRHFDGRKPGEPPYTLLDYFDKDFIVFIDESHITVPQLRAMYNGDRSRKKNLVEYGFRLPSAYDNRPLTFEEFLKKTGQIIFVSATPGDFELSISEQVVEQIIRPTGLVDPEVEVRPTAGQVDDLVNEIVKVKERGERALVTVLTKKTAELLSEHLTELGIRSLYLHSELDAIERVEVLKKLRRGDVDVVVGVNLLREGLDLPEVSLVAIMDADVEGFLRSETTLIQIIGRTARNVNGKVIMYADRITNAMKRAIEETNRRRRIQLEYNRKHGITPRSVIKPLEIEVFEQFMVKEEPERYGDTVKNIFEMKKTLSPEEYMAVLEEEMYRAASELRYEDAAALRDELFRIREEIKKKKGL
MGSSHHHHHHGKTIFVIVPTNEEQVAFLEALAKQDELNFDWQNPPTEPGQPVVILIPSDMVEWFLEMLKAKGIPFTVYVEEGGSENLYFQGGGGGGAATVTDLKNAIKNELYRIDIGMTDFYSSLSVSPTVQQQYCTAAITSRAAGLSLTMESLSSPYGVLATEYGFLIYKDTFVFGPSIKLIGASAWPNGTLTTDIQSGRHILVPYLTNTVVFVTGVIENEDGRQNILPMMRLMMVDSYLCAHMHMNVANLYRKTFRTAFAELA
